Laboratory results reported in US20080292620A1.

Biological target: T1, human prolactin receptor (PRLR), full length on cells (human) (UniProt P16471)
T1 sequence: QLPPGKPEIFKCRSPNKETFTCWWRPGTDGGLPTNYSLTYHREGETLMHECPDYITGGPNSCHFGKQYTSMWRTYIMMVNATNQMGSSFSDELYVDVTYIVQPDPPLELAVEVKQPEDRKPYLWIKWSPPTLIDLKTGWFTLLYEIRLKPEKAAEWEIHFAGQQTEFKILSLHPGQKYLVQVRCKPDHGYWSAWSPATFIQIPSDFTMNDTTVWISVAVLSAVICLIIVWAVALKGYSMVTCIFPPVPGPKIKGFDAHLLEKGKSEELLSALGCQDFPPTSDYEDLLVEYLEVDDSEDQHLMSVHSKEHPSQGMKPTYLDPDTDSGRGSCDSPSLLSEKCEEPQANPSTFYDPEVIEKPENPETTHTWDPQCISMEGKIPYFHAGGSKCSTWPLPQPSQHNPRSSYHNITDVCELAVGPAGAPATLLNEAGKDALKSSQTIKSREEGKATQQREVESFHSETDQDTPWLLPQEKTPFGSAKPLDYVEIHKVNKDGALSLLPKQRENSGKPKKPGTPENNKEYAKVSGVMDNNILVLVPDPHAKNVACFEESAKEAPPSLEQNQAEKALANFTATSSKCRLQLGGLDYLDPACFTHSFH
Assay: flow cytometry on CHO-K1 cells expressing human PRLR (clone 1G5)

MFI: 33.8
Substance: mAb 1167, control murine anti-PRLR monoclonal antibody (R&D Systems, catalog #MAB1167)
